Source: PMC12872464
Positions count from the first letter of the chain named. Names and notes keep the numbering of the source.

B1: HA-tagged PPAP recombinant protein, isoform 2 (membrane protein), wild type (rPPAP-HA WT), P15309-2 N94A; N333A (protein)
chain: MRAAPLLLARAASLSLGFLFLLFFWLDRSVLAKELKFVTLVFRHGDRSPIDTFPTDPIKESSWPQGFGQLTQLGMEQHYELGEYIRKRYRKFLAESYKHEQVYIRSTDVDRTLMSAMTNLAALFPPEGVSIWNPILLWQPIPVHTVPLSEDQLLYLPFRNCPRFQELESETLKSEEFQKRLHPYKDFIATLGKLSGLHGQDLFGIWSKVYDPLYCESVHNFTLPSWATEDTMTKLRELSELSLLSLYGIHKQKEKSRLQGGVLVNEILNHMKRATQIPSYKKLIMYSAHDTTVSGLQMALDVYNGLLPPYASCHLTELYFEKGEYFVEMYYRAETQHEPYPLMLPGCSPSCPLERFAELVGPVIPQDWSTECMTTNSHQGTEDSTD
B2: HA-tagged PPAP recombinant protein, isoform 2 (membrane protein), wild type (rPPAP-HA WT), P15309-2 N94A; N220A (protein)
chain: B1 chain with N220A, A333N
B3: HA-tagged PPAP recombinant protein, isoform 2 (membrane protein), wild type (rPPAP-HA WT), P15309-2 N94A; N220A; N333A (protein)
chain: KELKFVTLVFRHGDRSPIDTFPTDPIKESSWPQGFGQLTQLGMEQHYELGEYIRKRYRKFLAESYKHEQVYIRSTDVDRTLMSAMTNLAALFPPEGVSIWNPILLWQPIPVHTVPLSEDQLLYLPFRNCPRFQELESETLKSEEFQKRLHPYKDFIATLGKLSGLHGQDLFGIWSKVYDPLYCESVHAFTLPSWATEDTMTKLRELSELSLLSLYGIHKQKEKSRLQGGVLVNEILNHMKRATQIPSYKKLIMYSAHDTTVSGLQMALDVYNGLLPPYASCHLTELYFEKGEYFVEMYYRAETQHEPYPLMLPGCSPSCPLERFAELVGPVIPQDWSTECMTTNSHQVLKVIFAVAFCLISAVLMVLLFIHIRRGLCWQRESYGNI
B4: HA-tagged PPAP recombinant protein, isoform 2 (membrane protein), wild type (rPPAP-HA WT), P15309-2 N94A (protein)
chain: B3 chain with A188N, A301N
B5: HA-tagged PPAP recombinant protein, isoform 2 (membrane protein), wild type (rPPAP-HA WT), P15309-2 N220A; N333A (protein)
chain: B3 chain with A62N
B6: HA-tagged PPAP recombinant protein, isoform 2 (membrane protein), wild type (rPPAP-HA WT), P15309-2 N333A (protein)
chain: B3 chain with A62N, A188N
B7: HA-tagged PPAP recombinant protein, isoform 2 (membrane protein), wild type (rPPAP-HA WT), P15309-2 N220A (protein)
chain: B3 chain with A62N, A301N

Key:
[1] = target: recombinant lectin domain of FimH with FLAG tag (rFimHLD-FLAG), P08191; test: western blot quantification of rFimHLD-FLAG bound to rPPAP-HA; settings: chain shown with the change; n = 3 biological replicates; parent: est. 1.0; read off a plot
[2] = target: full-length FimH adhesin on live WT UPEC UTI89 bacteria, P08191; test: binding array (rPPAP bound to glass slide, incubated with live bacteria); settings: chain shown with the change, n = 3 biological replicates
full-length FimH adhesin on live WT UPEC UTI89 bacteria, P08191, sequence (P08191 22-300): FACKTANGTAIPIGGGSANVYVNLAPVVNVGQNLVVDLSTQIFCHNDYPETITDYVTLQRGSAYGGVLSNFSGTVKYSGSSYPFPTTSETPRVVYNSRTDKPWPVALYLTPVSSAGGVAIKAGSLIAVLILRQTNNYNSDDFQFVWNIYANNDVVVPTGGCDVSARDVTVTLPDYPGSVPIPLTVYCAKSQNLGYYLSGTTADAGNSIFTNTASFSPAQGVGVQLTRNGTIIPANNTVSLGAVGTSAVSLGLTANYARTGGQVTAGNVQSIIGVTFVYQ

recombinant lectin domain of FimH with FLAG tag (rFimHLD-FLAG), P08191, sequence (P08191 22-156): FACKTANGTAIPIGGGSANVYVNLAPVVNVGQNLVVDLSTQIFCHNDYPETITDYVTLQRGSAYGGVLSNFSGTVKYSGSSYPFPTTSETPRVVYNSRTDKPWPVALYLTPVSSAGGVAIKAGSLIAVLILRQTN

Row | Binder | ratio to parent [1] | response (bacteria per field) ([2]; with D-mannose, parent: est. 18, read off a plot) | response (bacteria per field) ([2]; without D-mannose, parent: est. 66, read off a plot)
1 | B1 | 0.5 | – | –
2 | B2 | 0.53 | – | –
3 | B3 | 0.36 | 13 | 19
4 | B4 | 0.78 | – | –
5 | B5 | 0.25 | – | –
6 | B6 | 0.6 | – | –
7 | B7 | 0.68 | – | –
